Here are results for one substance from paper PMC3459099.

pKd: −log10 of the molar value.

The target of this assay is ERp57-Cys57Ser–Cys406Ser double mutant (mutated ERp57) (human) (UniProt P30101). The experiment in a line: ELISA. On the technique in general: An ELISA detects its analyte on a solid surface through an enzyme-linked reagent.

In general, pKd refers to the Kd on a negative log10 scale, so that one unit is a factor of ten. Higher therefore signals a small Kd. As for “recombinant N-terminal region of β-DG, β-DG(654–750), biotinylated (domain or fragment)”, the pKd was 5.00.
